From the supplement of paper PMC9112550, “Optimization of the antimicrobial peptide Bac7 by deep mutational scanning” (BMC Biology, 2022)

System: Escherichia coli TOP10
Assay: shrunken log2 fold change of peptide-encoding DNA abundance (4.5 h post-induction vs induction); higher = less antimicrobial activity (less host growth inhibition)
Conditions: time post-induction: 4.5 h; library: site-saturation at positions 5, 18, 19, 20
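Also: peptides expressed intracellularly from a pBAD plasmid library in pooled LB shake-flask culture, induced with 0.3% L-arabinose, DNA abundance read by NGS, three biological replicates, DESeq2 with apeglm shrinkage.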

Sequence	shrunken log2 fold change
RRIRWRPPRLPRPRPRPETYPRP	-0.231
RRIRARPPRLPRPRPRPWDFPRP	-0.00352
RRIRERPPRLPRPRPRPFILPRP	-0.784
RRIRNRPPRLPRPRPRPPSAPRP	0.726
RRIRVRPPRLPRPRPRPYAIPRP	-0.033
RRIRERPPRLPRPRPRPVIIPRP	-0.634
RRIRQRPPRLPRPRPRPLYYPRP	0.614
RRIRIRPPRLPRPRPRPMKDPRP	-0.135
RRIRVRPPRLPRPRPRPWKRPRP	-0.1
RRIRNRPPRLPRPRPRPFATPRP	-0.101
RRIRHRPPRLPRPRPRPCKLPRP	-0.714
RRIRSRPPRLPRPRPRPEKVPRP	-0.1
RRIRYRPPRLPRPRPRPNGWPRP	-0.0316
RRIRRRPPRLPRPRPRPSRDPRP	0.303
RRIRLRPPRLPRPRPRPHHGPRP	-0.0757
RRIRPRPPRLPRPRPRPYEWPRP	-0.874
RRIRLRPPRLPRPRPRPFYYPRP	-0.666
RRIRFRPPRLPRPRPRPALQPRP	-0.142
RRIRARPPRLPRPRPRPCDVPRP	0.212
RRIRVRPPRLPRPRPRPRTCPRP	-0.143
RRIRGRPPRLPRPRPRPNTTPRP	0.325
RRIRIRPPRLPRPRPRPMLNPRP	-0.526
RRIRYRPPRLPRPRPRPYNNPRP	-1.43
RRIRMRPPRLPRPRPRPHVYPRP	-0.207
RRIRWRPPRLPRPRPRPWNNPRP	-0.77

Sequence	shrunken log2 fold change
RRIRRRPPRLPRPRPRPSSVPRP	0.131
RRIRRRPPRLPRPRPRPLYCPRP	-0.115
RRIRSRPPRLPRPRPRPCYYPRP	-0.571
RRIRGRPPRLPRPRPRPEHPPRP	0.281
RRIRTRPPRLPRPRPRPPHNPRP	0.0332
RRIRFRPPRLPRPRPRPNMLPRP	-0.669
RRIRGRPPRLPRPRPRPHYFPRP	0.313
RRIRSRPPRLPRPRPRPDTLPRP	-0.126
RRIRIRPPRLPRPRPRPICKPRP	-0.199
RRIRGRPPRLPRPRPRPVVTPRP	-0.216
RRIRARPPRLPRPRPRPKQTPRP	0.453
RRIRCRPPRLPRPRPRPNQMPRP	-0.447
RRIRLRPPRLPRPRPRPAMPPRP	0.234
RRIRWRPPRLPRPRPRPYDYPRP	-0.262
RRIRDRPPRLPRPRPRPMITPRP	-0.115
RRIRHRPPRLPRPRPRPMAYPRP	-0.0524
RRIRTRPPRLPRPRPRPHYTPRP	-1.01
RRIRRRPPRLPRPRPRPANNPRP	-0.0615
RRIRIRPPRLPRPRPRPFESPRP	-0.218
RRIRTRPPRLPRPRPRPKYPPRP	-0.252
RRIRKRPPRLPRPRPRPKCNPRP	-0.0341
RRIRGRPPRLPRPRPRPVPVPRP	0.629
RRIRGRPPRLPRPRPRPHNGPRP	0.0528
RRIRARPPRLPRPRPRPRFTPRP	0.267
RRIRDRPPRLPRPRPRPAVEPRP	0.845

Sequence	shrunken log2 fold change
RRIRQRPPRLPRPRPRPPQTPRP	0.33
RRIRQRPPRLPRPRPRPDRRPRP	0.00167
RRIRSRPPRLPRPRPRPYCEPRP	-0.352
RRIRKRPPRLPRPRPRPQDQPRP	0.325
RRIRQRPPRLPRPRPRPNITPRP	-0.495
RRIRTRPPRLPRPRPRPITHPRP	-0.0526
RRIRDRPPRLPRPRPRPPRDPRP	0.771
RRIRCRPPRLPRPRPRPTTIPRP	-0.492
RRIRHRPPRLPRPRPRPWCVPRP	-0.386
RRIRPRPPRLPRPRPRPVEGPRP	0.0448
RRIRTRPPRLPRPRPRPMIDPRP	-0.246
RRIRYRPPRLPRPRPRPFRKPRP	-0.00664
RRIRARPPRLPRPRPRPCQQPRP	-0.00897
RRIRFRPPRLPRPRPRPRSWPRP	0.135
RRIRWRPPRLPRPRPRPLRDPRP	0.655
RRIRPRPPRLPRPRPRPVLAPRP	0.668
RRIRGRPPRLPRPRPRPWRLPRP	-0.0196
RRIRTRPPRLPRPRPRPSFQPRP	-0.427
RRIRFRPPRLPRPRPRPLFAPRP	0.15
RRIRCRPPRLPRPRPRPHCKPRP	-0.348
RRIRVRPPRLPRPRPRPARGPRP	0.681
RRIRHRPPRLPRPRPRPWMFPRP	-0.119
RRIRMRPPRLPRPRPRPQGPPRP	0.246
RRIRKRPPRLPRPRPRPFDYPRP	-0.121
RRIRVRPPRLPRPRPRPDARPRP	0.262

Sequence	shrunken log2 fold change
RRIRCRPPRLPRPRPRPLLTPRP	0.00188
RRIRYRPPRLPRPRPRPCTHPRP	-1.23
RRIRCRPPRLPRPRPRPGCMPRP	0.00195
RRIRSRPPRLPRPRPRPHLRPRP	0.092
RRIRERPPRLPRPRPRPNIIPRP	-0.338
RRIRIRPPRLPRPRPRPSNRPRP	-0.139
RRIRQRPPRLPRPRPRPNHYPRP	-0.36
RRIRYRPPRLPRPRPRPEYEPRP	-0.0176
RRIRMRPPRLPRPRPRPMPEPRP	0.627
RRIRARPPRLPRPRPRPHDNPRP	0.00651
RRIRDRPPRLPRPRPRPKDHPRP	0.0158
RRIRVRPPRLPRPRPRPWCNPRP	3.15
RRIRERPPRLPRPRPRPDKCPRP	-0.121
RRIRPRPPRLPRPRPRPDRLPRP	0.48
RRIRIRPPRLPRPRPRPHSWPRP	-0.327
RRIRFRPPRLPRPRPRPGMCPRP	-0.0231
RRIRWRPPRLPRPRPRPVLNPRP	0.116
RRIRHRPPRLPRPRPRPVKLPRP	-0.438
RRIRVRPPRLPRPRPRPAFPPRP	0.246
RRIRQRPPRLPRPRPRPSWEPRP	-0.141
RRIRVRPPRLPRPRPRPYYIPRP	-0.284
RRIRGRPPRLPRPRPRPFAAPRP	1.82
RRIRSRPPRLPRPRPRPCHLPRP	-0.0433
RRIRNRPPRLPRPRPRPNLPPRP	-0.0407
RRIRIRPPRLPRPRPRPQHVPRP	-0.211

Sequence	shrunken log2 fold change
RRIRIRPPRLPRPRPRPPECPRP	-0.17
RRIRVRPPRLPRPRPRPHYCPRP	-0.186
RRIRWRPPRLPRPRPRPNVRPRP	0.057
RRIRWRPPRLPRPRPRPYYYPRP	-0.473
RRIRHRPPRLPRPRPRPEPEPRP	0.241
RRIRWRPPRLPRPRPRPTHTPRP	-0.252
RRIRVRPPRLPRPRPRPNKNPRP	0.0192
RRIRFRPPRLPRPRPRPTKQPRP	0.0621
RRIRGRPPRLPRPRPRPPGHPRP	0.772
RRIRNRPPRLPRPRPRPYRIPRP	-0.115
RRIRPRPPRLPRPRPRPQSYPRP	-0.202
RRIRLRPPRLPRPRPRPSILPRP	-0.57
RRIRMRPPRLPRPRPRPYLQPRP	-0.0699
RRIRTRPPRLPRPRPRPAMVPRP	-0.208
RRIRMRPPRLPRPRPRPEMDPRP	3.88
RRIRDRPPRLPRPRPRPLWMPRP	0.0442
RRIRLRPPRLPRPRPRPMWVPRP	-0.314
RRIRRRPPRLPRPRPRPQVIPRP	-0.0307
RRIRARPPRLPRPRPRPQKMPRP	-0.000461
RRIRGRPPRLPRPRPRPWWCPRP	0.127
RRIRIRPPRLPRPRPRPLSIPRP	-0.493
RRIRYRPPRLPRPRPRPAYIPRP	-0.00172
RRIRYRPPRLPRPRPRPPWYPRP	-0.786
RRIRWRPPRLPRPRPRPSHVPRP	-0.167
RRIRQRPPRLPRPRPRPDTVPRP	-0.171
